The values below come from patent US20210403583A1 (ELIXIRON IMMUNOTHERAPEUTICS HONG KONG, published 2021).

Test [1] deals with T1, recombinant human CSF1R-His (Biolegend) (human, UniProt P07333 20-512, limits assumed).
T1 construct: Bought protein; also called CSF1R-His (monomer); hu-CSF1R; not shown: His tag
Description: ELISA, coated human CSF1R-His (monomer). On the procedure:
(§1) Materials and methods: Recombinant human CSF1R-His (Biolegend), or CSF1R-Fc fusion protein were immobilized on 96 well microtiter plate at a concentration of 1 μg/mL in Coating Solution (SeraCare) overnight at 4° C. The wells were washed with wash solution (0.05% Tween20 in imidazole-buffered saline) and blocked with 1% BSA. Hybridoma culture supernatants or serial dilutions of antibodies were added to wells. After incubation at 37° C. for 1 h, the wells were washed with wash solution. Peroxidase-conjugated goat anti-human kappa light chain antibody (Bethyl) was applied to each well at 37° C. for 1 h incubation. After washing, the wells were developed with TMB substrate for 5-10 min at RT and then stopped with 1 N HCl. Thereafter absorbance was measured at 450 nm and 650 nm. The EC₅₀ values were calculated through GraphPad Prism7.
In general terms: In an ELISA, binding on a coated surface is turned into a signal by an enzyme label.

For test [2], the target named is T2, recombinant human CSF1R-Fc fusion protein (human, UniProt P07333 20-512).
T2 construct: probably the same protein; also called CSF1R-Fc (dimer); not shown: Fc part
Description: ELISA, coated human CSF1R-Fc (dimer). As to the method:
as §1

Test [3] deals with T2, recombinant human CSF1R-Fc fusion …. Description: competition ELISA, coated human CSF1R-Fc, competitor biotinylated CSF1-His 2.5 ug/mL. On the procedure: Materials and methods: Recombinant human CSF1R-Fc fusion protein was immobilized on 96 well microtiter plate at a concentration of 1 μg/mL in Coating Solution (SeraCare) overnight at 4° C. The wells were washed with wash solution and blocked with 1% BSA at RT. Serial dilutions of the antibodies were added to wells. Then 2.5 ug/mL biotinylated CSF1-His (Biolegend) was added and incubated for 1 h at 37° C. After washing, Streptavidin-HRP (Jackson ImmunoResearch) was applied to wells at RT for 1 h incubation. After washing, the wells were developed with TMB substrate for 5-10 min at RT and the stopped with 1 N HCl. Thereafter absorbance was measured at 450 nm and 650 nm. The IC₅₀ values were calculated through GraphPad Prism7.

Test [4] has as its target T3, human CSF1R expressed on cells (293F/huCSF1R stable cells; AML5 cells; human monocytes and macrophages) (human, UniProt P07333 20-972). Put plainly: cell-based or functional assay.
Test [5] deals with T1, recombinant human CSF1R-His (Biolegend). Description: BLI (Octet RED96), antibody captured on AHC biosensor, CSF1R-His in solution, 1:1 model. As to the method: Kinetic rate constants, ka and kd, for binding of 6D4 and 6M6 to CSF1R were measured by Bio-Layer Interferometry (BLI) (ForteBio Octet RED96). The BLI assay was performed using AHC (Anti-hIgG Fc Capture) biosensors (ForteBio) to capture each anti-CSF1R antibody (2 μg/mL) to acquire a 0.5 nm shift and then the biosensors were dipped into varying concentrations (i.e. 0, 0.549, 1.65, 4.94, 14.8, 44.4, 133.3 and 400 nM) of recombinant CSF1R-His protein in running buffer containing PBS-Tween 20 (0.1%), BSA (0.1%). Rate constants were calculated by curve fitting analyses (1:1 Langmuir model) of binding response with a 5-minute association and 15-minute dissociation interaction time.

The target in test [6] is T3, human CSF1R expressed on cells …. Put plainly: cell-based or functional assay. This is another data set of the same source.
The target is the same in test [7]. Put plainly: cell-based or functional assay. The source holds these as a separate data set.
In test [8] the target is T2, recombinant human CSF1R-Fc fusion …. Description: ELISA, coated human CSF1R-Fc (dimer). On the procedure:
(§2) Materials and methods: Recombinant human CSF1R-His (Biolegend), or CSF1R-Fc fusion protein, were immobilized on 96 well microtiter plate at a concentration of 1 μg/mL in Coating Solution (SeraCare) overnight at 4° C. The wells were washed with wash solution (0.05% Tween20 in imidazole-buffered saline) and blocked with 1% BSA. Serial dilutions of the antibodies were added to wells. After incubation at 3TC for 1 h, the wells were washed with wash solution. Peroxidase-conjugated goat anti-human kappa light chain antibody (Bethyl) was applied to each well at 3TC for 1 h incubation. After washing, the wells were developed with TMB substrate for 5-10 min at RT and then stopped with 1 N HCl. Thereafter absorbance was measured at 450 nm and 650 nm. The EC50 values were calculated through GraphPad Prism7.
The source holds these as a separate data set.

Test [9] addresses T1, recombinant human CSF1R-His (Biolegend). Description: ELISA, coated human CSF1R-His (monomer). As to the method:
as §2
This is another data set of the same source.

In test [10] the target is T4, cynomolgus CSF1R expressed on 293F cells (cynomolgus monkey, UniProt P07333 20-972 (human entry)).
T4 construct: also called cynoCSF1R
T4 chain: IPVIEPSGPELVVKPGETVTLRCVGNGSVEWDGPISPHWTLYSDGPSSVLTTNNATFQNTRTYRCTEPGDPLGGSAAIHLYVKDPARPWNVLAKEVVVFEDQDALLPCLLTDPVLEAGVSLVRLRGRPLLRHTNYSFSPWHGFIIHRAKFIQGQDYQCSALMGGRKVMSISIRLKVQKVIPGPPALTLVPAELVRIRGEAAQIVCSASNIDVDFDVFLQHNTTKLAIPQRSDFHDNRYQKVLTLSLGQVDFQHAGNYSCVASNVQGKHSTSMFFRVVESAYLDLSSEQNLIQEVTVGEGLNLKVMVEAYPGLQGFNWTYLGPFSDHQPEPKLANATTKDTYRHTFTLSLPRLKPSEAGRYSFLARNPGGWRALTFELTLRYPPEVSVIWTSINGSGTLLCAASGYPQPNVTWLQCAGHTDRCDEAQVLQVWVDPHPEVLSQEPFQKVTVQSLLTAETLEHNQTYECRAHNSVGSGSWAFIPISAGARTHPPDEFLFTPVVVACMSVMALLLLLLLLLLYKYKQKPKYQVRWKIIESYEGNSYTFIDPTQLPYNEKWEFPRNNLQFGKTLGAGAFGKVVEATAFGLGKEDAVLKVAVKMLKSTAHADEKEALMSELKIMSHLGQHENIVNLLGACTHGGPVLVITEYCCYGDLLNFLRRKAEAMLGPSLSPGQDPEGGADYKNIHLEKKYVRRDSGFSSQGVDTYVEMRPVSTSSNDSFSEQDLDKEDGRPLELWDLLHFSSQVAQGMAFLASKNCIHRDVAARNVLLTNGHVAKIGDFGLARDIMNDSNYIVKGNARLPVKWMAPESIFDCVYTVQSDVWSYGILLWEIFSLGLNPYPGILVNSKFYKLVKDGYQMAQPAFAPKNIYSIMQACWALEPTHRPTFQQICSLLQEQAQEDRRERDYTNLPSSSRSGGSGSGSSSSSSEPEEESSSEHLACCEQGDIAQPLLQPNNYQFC
Description: flow cytometry titration on 293F cells overexpressing cynomolgus CSF1R, anti-human IgG-Alexa Fluor 647. The text has this:
Materials and methods: The gene segments encoding full-length human CSF1R or cynomolgus CSF1R were obtained using Thermo gene synthesis service and cloned in a mammalian expression vector pCDNA3.4. […] After washing with FACS buffer (2%FBS in PBS), the cells were stained with anti-human IgG-Alexa Fluor 647 and analyzed by Attune N×T Flow Cytometer (Thermo Scientific).

The target of test [11] is T3, human CSF1R expressed on cells …. Description: cell-based or functional assay. This is another data set of the same source.
The target is the same in test [12]. Put plainly: cell-based or functional assay. This is another data set of the same source.
In test [13] the target is T2, recombinant human CSF1R-Fc fusion …. Put plainly: ELISA, coated human CSF1R-Fc. On the procedure: Materials and methods: Recombinant human CSF1R-Fc, or mouse CSF1R-Fc (Sino Biological) were immobilized on 96 well microtiter plate at a concentration of 1 μg/mL in Coating Solution (SeraCare) overnight at 4° C. The wells were washed with wash solution (0.05% Tween20 in imidazole-buffered saline) and blocked with 1% BSA. Serial dilutions of the anti-CSF1R/IL-10 fusion proteins were added to wells. After incubation at 3TC for 1 h, the wells were washed with wash solution. To detect chimeric Ab/IL10 fusions, peroxidase-conjugated goat anti-human kappa light chain antibody (Bethyl) was applied to each well at 3TC for 1 h incubation. To detect AB98 or AB98/1110 fusions, peroxidase-conjugated Goat anti-mouse IgG Fab antibody (Jackson immunoresearch) was applied to each well at 3TC for 1 h incubation. After washing, the wells were developed with TMB substrate for 5-10 min at RT and then stopped with 1 N HCl. Thereafter absorbance was measured at 450 nm and 650 nm.

Where two headings read alike, the source gives them in different places.

T2 sequence (P07333 20-512 limits assumed): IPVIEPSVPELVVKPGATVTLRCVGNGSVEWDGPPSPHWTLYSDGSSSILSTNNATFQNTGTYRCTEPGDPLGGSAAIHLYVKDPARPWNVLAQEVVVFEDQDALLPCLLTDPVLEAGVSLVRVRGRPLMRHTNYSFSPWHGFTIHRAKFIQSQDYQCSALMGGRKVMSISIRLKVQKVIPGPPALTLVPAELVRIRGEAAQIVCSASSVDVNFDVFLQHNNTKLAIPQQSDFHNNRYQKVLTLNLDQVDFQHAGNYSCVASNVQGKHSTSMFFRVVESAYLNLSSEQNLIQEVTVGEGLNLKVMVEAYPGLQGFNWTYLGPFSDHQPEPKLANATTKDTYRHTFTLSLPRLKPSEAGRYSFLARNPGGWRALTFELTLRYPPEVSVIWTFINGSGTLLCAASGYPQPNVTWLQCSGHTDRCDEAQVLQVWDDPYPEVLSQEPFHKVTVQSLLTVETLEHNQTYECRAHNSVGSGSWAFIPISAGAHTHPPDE
T1 sequence (P07333 20-512 limits assumed): as above

B1: hy6D4 (antibody, V domains shown)
VH: EIQLQQSGAELVKPRASVKISCEASGYSFTGYNMNWVKQSPGKSLEWIGDINPYYGATTYNQKFKGKATLTVDKSSSTAYMQLNSLTSEDSAVYYCARRGDYGDYEGWYFDVWGAGTTVTVSS
VL: DIQMNQSPSSLSASLGDTITITCHASQNINVWLSWYQQKPGNIPKLLIYKASNLHTGVPSRFSGSGSGTGFTLTISSLQPEDIATYYCQQGQSYPYTFGGGTKLEIK
notes: Mouse hybridoma antibody; also called anti-CSF1R antibody purified from hybridoma supernatant hy6D4
As a reminder, the EC50 is the concentration giving half of the maximal effect. The IC50 is the concentration that inhibits the measured activity by half. With B1, the EC50 turned out to be 0.531 nM in test [1] and 0.381 nM in [2]. Besides, the IC50 in test [3] came to 1.76 nM.

B2: chimeric anti-CSF1R antibody 6D4 (antibody, human IgG1, kappa)
heavy: not shown
light: DIQMNQSPSSLSASLGDTITITCHASQNINVWLSWYQQKPGNIPKLLIYKASNLHTGVPSRFSGSGSGTGFTLTISSLQPEDIATYYCQQGQSYPYTFGGGTKLEIKRTVAAPSVFIFPPSDEQLKSGTASVVCLLNNFYPREAKVQWKVDNALQSGNSQESVTEQDSKDSTYSLSSTLTLSKADYEKHKVYACEVTHQGLSSPVTKSFNRGEC
In general, Kd refers to the free concentration of one partner at which half of the binding sites on the other are occupied at equilibrium, for simple one-to-one binding. Usually koff stands for the rate constant with which the complex falls apart. As a reminder, the kon is the rate constant with which the complex forms. As for B2, in test [4], the “IC50 (M), CSF1-dependent AML5 cell proliferation” value came out at 4.62e-10 M and the “IC50 (M), IL-34-dependent AML5 cell proliferation” value was found to be 3.49e-10 M. Besides, in test [5], the Kd is 3.42 nM, the koff stood at 0.000946 s⁻¹ and the kon is 277000 M⁻¹ s⁻¹. Moreover, the “IC50 (M), CSF1-dependent AML5 cell proliferation” value in test [6] is 4.62e-10 M. In [7], the “IC50 (M), CSF1-dependent survival of CD14+ monocytes” value stood at 5.58e-10 M and the “IC50 (M), CSF1-dependent survival of macrophages” value was 1.38e-10 M. The half-maximal effective concentration (EC50) in [8] turned out to be 0.381 nM. Further, the EC50 in [9] was determined as 0.531 nM.

B3: humanized anti-CSF1R antibody 6M6.hu12 (antibody, human IgG1, kappa)
heavy: not shown
light: DIVLTQSPDSLAVSLGERATINCKASQGVDYAGDSYMNWYQQKPGQPPKLLIYVASDLDSGIPDRFSGSGSGTDFTLTISSLQAEDVATYYCQQSYEDPRTFGGGTTLEIKRTVAAPSVFIFPPSDEQLKSGTASVVCLLNNFYPREAKVQWKVDNALQSGNSQESVTEQDSKDSTYSLSSTLTLSKADYEKHKVYACEVTHQGLSSPVTKSFNRGEC
notes: Humanized version of 6M6; also called 6M6.hul2
As to B3, the “IC50 (M), CSF1-dependent AML5 cell proliferation” value in [6] stood at 5.46e-10 M. Besides, the EC50 amounted to 0.0613 nM in test [8] and 0.103 nM in test [9].

B4: humanized anti-CSF1R/IL10 fusion protein 6M6.hu12/IL10 (antibody, human IgG1, kappa)
heavy: not shown
light: DIVLTQSPDSLAVSLGERATINCKASQGVDYAGDSYMNWYQQKPGQPPKLLIYVASDLDSGIPDRFSGSGSGTDFTLTISSLQAEDVATYYCQQSYEDPRTFGGGTTLEIKRTVAAPSVFIFPPSDEQLKSGTASVVCLLNNFYPREAKVQWKVDNALQSGNSQESVTEQDSKDSTYSLSSTLTLSKADYEKHKVYACEVTHQGLSSPVTKSFNRGEC
notes: Antibody-cytokine fusion: human IL10 fused by a linker to the C-terminus of the heavy chain
On to B4, for which the binding result in [10] is on record as “binds”. Besides, the “IC50 (M), inhibition of macrophage survival (CSF1-dependent)” value in test [11] was found to be 1.49e-10 M. Moreover, the “IC50 (M), inhibition of AML5 cell proliferation (CSF1-dependent)” value in [12] worked out at 1.61e-09 M. In addition, the EC50 in [13] is 0.252 nM.

B5: humanized anti-CSF1R/IL10 fusion protein 6M6.hu41/IL10 (antibody, human IgG1, kappa)
heavy: not shown
light: DIVLTQSPDSLAVSLGERATINCKASQGVDYAGDSYMNWYQQKPGQPPKLLIYVASDLDSGVPDRFSGSGSGTDFTLTISSLQAEDVATYYCQQSYEDPRTFGGGTTLEIKRTVAAPSVFIFPPSDEQLKSGTASVVCLLNNFYPREAKVQWKVDNALQSGNSQESVTEQDSKDSTYSLSSTLTLSKADYEKHKVYACEVTHQGLSSPVTKSFNRGEC
notes: Antibody-cytokine fusion: human IL10 fused by a linker to the C-terminus of the heavy chain; also called 6M6.hu41/1L10
As to B5, the binding result in test [10] is “binds”. The “IC50 (M), inhibition of macrophage survival (CSF1-dependent)” value in [11] is 1.84e-10 M. In addition, the “IC50 (M), inhibition of AML5 cell proliferation (CSF1-dependent)” value in [12] came to 8.93e-10 M. Besides, the EC50 in [13] amounted to 0.205 nM.

B6: humanized anti-CSF1R antibody 6M6.hu41 (antibody, human IgG1, kappa)
heavy: not shown
light: DIVLTQSPDSLAVSLGERATINCKASQGVDYAGDSYMNWYQQKPGQPPKLLIYVASDLDSGVPDRFSGSGSGTDFTLTISSLQAEDVATYYCQQSYEDPRTFGGGTTLEIKRTVAAPSVFIFPPSDEQLKSGTASVVCLLNNFYPREAKVQWKVDNALQSGNSQESVTEQDSKDSTYSLSSTLTLSKADYEKHKVYACEVTHQGLSSPVTKSFNRGEC
notes: Humanized version of 6M6
As for B6, the “IC50 (M), CSF1-dependent AML5 cell proliferation” value in [6] worked out at 4.3e-10 M. In addition, the EC50 in test [8] came to 0.065 nM; in test [9], 0.107 nM.
